In article PMC9468479:

Tests used:
[1] = molecular target: Wuhan-Hu-1 SARS-CoV-2 receptor binding domain (2019-nCoV spike RBD) (SARS-CoV-2 (Wuhan-Hu-1)) (UniProt P0DTC2); assay: SPR
[2] = molecular target: SARS-CoV-2 wild-type Wuhan-Hu-1 spike protein (2019-nCoV spike protein) (SARS-CoV-2 (Wuhan-Hu-1)) (UniProt P0DTC2); assay: SPR

Urtica dioica agglutinin (UDA) (natural protein)
Kd [1]: 22 nM | Kd [2]: 7 nM
